The test deals with mouse alpha (2) macroglobulin receptor (mouse, UniProt Q91ZX7 20-4545). The test is described as follows: cell-based or functional assay.
Sequence of mouse alpha (2) macroglobulin receptor (Q91ZX7 other isoform, or with tags, fused parts or gaps limits assumed): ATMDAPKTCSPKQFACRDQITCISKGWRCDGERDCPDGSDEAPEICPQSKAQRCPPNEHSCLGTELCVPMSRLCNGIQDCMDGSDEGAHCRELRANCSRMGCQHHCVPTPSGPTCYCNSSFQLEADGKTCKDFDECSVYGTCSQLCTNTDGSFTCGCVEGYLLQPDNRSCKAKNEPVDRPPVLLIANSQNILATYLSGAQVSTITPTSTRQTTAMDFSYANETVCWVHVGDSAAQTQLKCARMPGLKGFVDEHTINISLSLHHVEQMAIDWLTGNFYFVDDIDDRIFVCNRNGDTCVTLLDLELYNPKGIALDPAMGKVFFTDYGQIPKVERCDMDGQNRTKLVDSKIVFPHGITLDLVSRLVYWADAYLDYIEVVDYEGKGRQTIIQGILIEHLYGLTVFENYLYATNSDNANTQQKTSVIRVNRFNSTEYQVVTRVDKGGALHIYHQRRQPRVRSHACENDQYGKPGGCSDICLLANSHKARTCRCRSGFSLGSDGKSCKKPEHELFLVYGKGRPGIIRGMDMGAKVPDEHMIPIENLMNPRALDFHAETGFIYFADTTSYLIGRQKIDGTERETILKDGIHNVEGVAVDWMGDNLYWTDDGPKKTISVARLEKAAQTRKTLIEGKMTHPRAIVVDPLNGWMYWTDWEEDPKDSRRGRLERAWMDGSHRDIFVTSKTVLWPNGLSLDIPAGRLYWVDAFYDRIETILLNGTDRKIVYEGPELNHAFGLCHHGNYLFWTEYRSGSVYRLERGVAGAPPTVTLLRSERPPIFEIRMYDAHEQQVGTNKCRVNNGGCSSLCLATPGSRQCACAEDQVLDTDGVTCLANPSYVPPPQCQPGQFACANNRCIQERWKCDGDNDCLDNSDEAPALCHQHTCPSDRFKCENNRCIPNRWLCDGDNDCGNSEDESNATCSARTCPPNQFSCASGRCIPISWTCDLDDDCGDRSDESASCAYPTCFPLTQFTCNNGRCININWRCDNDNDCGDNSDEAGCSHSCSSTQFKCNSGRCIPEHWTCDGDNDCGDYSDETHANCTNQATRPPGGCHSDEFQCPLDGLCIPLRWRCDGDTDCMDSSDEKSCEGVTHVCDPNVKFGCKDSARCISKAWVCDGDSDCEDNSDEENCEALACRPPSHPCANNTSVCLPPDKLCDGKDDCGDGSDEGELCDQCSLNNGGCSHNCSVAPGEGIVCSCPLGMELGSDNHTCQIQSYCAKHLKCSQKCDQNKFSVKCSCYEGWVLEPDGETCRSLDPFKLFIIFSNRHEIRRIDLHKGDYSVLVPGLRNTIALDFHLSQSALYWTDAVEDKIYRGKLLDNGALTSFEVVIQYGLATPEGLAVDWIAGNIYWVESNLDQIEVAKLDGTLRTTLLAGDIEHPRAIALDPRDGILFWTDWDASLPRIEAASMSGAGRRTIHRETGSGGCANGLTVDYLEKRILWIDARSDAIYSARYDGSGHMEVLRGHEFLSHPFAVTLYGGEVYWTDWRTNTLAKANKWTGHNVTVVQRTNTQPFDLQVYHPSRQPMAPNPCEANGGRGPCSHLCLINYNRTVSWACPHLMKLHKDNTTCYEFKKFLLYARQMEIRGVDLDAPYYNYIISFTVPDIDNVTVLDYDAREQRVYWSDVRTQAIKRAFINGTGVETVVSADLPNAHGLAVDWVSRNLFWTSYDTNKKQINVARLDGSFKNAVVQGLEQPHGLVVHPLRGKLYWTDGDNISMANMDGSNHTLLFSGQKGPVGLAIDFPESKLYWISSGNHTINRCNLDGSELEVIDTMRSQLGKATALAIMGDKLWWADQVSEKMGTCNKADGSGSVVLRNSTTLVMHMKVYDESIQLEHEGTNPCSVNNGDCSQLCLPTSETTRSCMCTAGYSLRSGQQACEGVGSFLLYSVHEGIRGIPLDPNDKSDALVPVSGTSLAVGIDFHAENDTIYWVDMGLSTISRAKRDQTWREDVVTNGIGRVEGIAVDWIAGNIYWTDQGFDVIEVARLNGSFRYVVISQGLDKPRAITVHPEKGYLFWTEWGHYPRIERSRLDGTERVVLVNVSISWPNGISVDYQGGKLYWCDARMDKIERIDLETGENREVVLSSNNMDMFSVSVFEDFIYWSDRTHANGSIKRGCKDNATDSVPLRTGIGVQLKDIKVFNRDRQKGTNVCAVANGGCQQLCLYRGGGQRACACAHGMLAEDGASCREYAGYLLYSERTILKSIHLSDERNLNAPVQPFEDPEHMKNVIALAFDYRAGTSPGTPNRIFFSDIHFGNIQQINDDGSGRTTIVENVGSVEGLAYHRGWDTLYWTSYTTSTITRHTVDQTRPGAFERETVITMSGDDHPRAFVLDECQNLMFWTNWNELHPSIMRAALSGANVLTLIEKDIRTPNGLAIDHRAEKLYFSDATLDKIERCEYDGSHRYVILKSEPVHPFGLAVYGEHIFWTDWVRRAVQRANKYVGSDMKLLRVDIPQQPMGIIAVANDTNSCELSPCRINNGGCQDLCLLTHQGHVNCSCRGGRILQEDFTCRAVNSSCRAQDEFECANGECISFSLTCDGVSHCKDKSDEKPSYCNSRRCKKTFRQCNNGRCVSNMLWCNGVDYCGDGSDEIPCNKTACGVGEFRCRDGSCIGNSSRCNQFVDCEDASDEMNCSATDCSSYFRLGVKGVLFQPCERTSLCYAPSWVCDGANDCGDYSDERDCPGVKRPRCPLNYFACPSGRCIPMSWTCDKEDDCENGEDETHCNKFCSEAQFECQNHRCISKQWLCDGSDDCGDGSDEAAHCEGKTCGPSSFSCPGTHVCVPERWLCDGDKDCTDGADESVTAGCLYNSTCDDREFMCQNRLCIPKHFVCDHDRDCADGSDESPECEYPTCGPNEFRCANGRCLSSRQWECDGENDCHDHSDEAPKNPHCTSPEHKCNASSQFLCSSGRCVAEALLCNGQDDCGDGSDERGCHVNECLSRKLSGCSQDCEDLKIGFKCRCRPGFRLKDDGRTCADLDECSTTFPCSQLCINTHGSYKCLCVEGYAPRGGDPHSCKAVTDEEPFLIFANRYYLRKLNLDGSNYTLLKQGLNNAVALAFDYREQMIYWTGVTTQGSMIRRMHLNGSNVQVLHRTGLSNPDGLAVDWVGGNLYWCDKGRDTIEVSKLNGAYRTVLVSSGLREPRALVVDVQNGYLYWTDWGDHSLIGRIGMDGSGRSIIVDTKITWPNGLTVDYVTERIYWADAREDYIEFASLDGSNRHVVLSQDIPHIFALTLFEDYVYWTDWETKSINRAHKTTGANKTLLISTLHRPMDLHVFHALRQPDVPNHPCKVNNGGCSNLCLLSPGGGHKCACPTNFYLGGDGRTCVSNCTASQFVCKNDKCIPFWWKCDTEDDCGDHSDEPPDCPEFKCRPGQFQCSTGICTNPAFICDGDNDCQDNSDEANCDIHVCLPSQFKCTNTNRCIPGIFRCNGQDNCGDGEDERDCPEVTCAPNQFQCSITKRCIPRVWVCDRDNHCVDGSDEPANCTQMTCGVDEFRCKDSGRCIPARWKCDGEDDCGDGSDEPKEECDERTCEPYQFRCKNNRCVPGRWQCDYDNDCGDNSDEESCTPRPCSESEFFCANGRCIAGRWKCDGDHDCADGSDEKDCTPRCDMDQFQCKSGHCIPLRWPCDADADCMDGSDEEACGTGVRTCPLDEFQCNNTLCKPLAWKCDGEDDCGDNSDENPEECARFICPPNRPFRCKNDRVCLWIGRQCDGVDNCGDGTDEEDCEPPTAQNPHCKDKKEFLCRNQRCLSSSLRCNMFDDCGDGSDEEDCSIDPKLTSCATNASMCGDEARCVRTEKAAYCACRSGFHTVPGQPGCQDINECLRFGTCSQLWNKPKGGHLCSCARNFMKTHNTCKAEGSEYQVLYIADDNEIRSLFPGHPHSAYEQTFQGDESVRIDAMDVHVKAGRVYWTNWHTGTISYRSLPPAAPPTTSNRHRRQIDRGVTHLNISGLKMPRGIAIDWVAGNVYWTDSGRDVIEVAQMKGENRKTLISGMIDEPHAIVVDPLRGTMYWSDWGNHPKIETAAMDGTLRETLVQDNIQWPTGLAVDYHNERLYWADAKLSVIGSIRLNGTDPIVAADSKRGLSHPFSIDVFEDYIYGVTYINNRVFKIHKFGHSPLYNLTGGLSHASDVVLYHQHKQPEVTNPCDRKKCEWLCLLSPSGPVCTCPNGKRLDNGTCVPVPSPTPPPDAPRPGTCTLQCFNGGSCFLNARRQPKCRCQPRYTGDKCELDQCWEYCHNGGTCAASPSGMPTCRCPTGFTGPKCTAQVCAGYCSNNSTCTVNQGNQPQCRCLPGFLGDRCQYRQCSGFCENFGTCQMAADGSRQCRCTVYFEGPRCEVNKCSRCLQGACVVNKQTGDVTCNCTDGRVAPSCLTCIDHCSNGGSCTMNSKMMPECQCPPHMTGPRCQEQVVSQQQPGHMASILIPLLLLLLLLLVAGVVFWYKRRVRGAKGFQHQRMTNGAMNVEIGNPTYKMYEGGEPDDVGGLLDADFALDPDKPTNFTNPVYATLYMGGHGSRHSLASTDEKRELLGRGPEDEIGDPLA

For heat shock protein hsp70 (ligand), the molar excess of free HSP required to inhibit by 50% the re-presentation of gp96-chaperoned peptides at a gp96 concentration of 40 µg/ml (RAW264.7 cells) (fold molar excess) turned out to be 13.

Molecule heat shock protein hsp90 (ligand) displayed a molar excess of free HSP required to inhibit by 50% the re-presentation of gp96-chaperoned peptides at a gp96 concentration of 40 µg/ml (RAW264.7 cells) (fold molar excess) of 2.

B1: heat shock protein gp96 (ligand, UniProt P08113 22-802, looked up)
chain: DDEVDVDGTVEEDLGKSREGSRTDDEVVQREEEAIQLDGLNASQIRELREKSEKFAFQAEVNRMMKLIINSLYKNKEIFLRELISNASDALDKIRLISLTDENALAGNEELTVKIKCDKEKNLLHVTDTGVGMTREELVKNLGTIAKSGTSEFLNKMTEAQEDGQSTSELIGQFGVGFYSAFLVADKVIVTSKHNNDTQHIWESDSNEFSVIADPRGNTLGRGTTITLVLKEEASDYLELDTIKNLVRKYSQFINFPIYVWSSKTETVEEPLEEDEAAKEEKEESDDEAAVEEEEEEKKPKTKKVEKTVWDWELMNDIKPIWQRPSKEVEEDEYKAFYKSFSKESDDPMAYIHFTAEGEVTFKSILFVPTSAPRGLFDEYGSKKSDYIKLYVRRVFITDDFHDMMPKYLNFVKGVVDSDDLPLNVSRETLQQHKLLKVIRKKLVRKTLDMIKKIADEKYNDTFWKEFGTNIKLGVIEDHSNRTRLAKLLRFQSSHHSTDITSLDQYVERMKEKQDKIYFMAGSSRKEAESSPFVERLLKKGYEVIYLTEPVDEYCIQALPEFDGKRFQNVAKEGVKFDESEKTKESREATEKEFEPLLNWMKDKALKDKIEKAVVSQRLTESPCALVASQYGWSGNMERIMKAQAYQTGKDISTNYYASQKKTFEINPRHPLIRDMLRRIKEDEDDKTVMDLAVVLFETATLRSGYLLPDTKAYGDRIERMLRLSLNIDPEAQVEEEPEEEPEDTSEDAEDSEQDEGEEMDAGTEEEEEETEKESTEKDEL
Turning to B1, the “molar excess of free HSP required to inhibit by 50% the re-presentation of gp96-chaperoned peptides at a gp96 concentration of 40 µg/ml (RAW264.7 cells)” value was ~6 fold molar excess.

The record behind these values is US20040072993A1 (UNIVERSITY OF CONNECTICUT HEALTH CENTER, published 2004).
